For assay [1], the target named is IL-21R-Fc (UniProt Q9HBE5). Description: ForteBio Octet.
Assay [2] deals with IL-21R on Hut78 T cells (UniProt Q9HBE5). Put plainly: cell-based or functional assay.
Assay [3] addresses human IL-21R-FLAG-His (monovalent) (human) (UniProt Q9HBE5). Put plainly: Octet, immobilized monovalent IL-21R-his.
The target of assay [4] is cynomolgus monkey IL-21R-FLAG-His (monovalent) (cynomolgus monkey) (UniProt G7Q0S8). Description: Octet, immobilized monovalent IL-21R-his. In general terms: Biolayer interferometry detects binding as a change in optical thickness at a sensor tip.
Assay [5] has as its target cynomolgus monkey PD-1(1-167)-FLAG-His (cynomolgus monkey). Put plainly: Octet, fusion amine-coupled to tips.
For assay [6], the target named is human PD-1(1-170)-FLAG-His (human) (UniProt Q15116). Description: Octet, fusion amine-coupled to tips.
human PD-1(1-170)-FLAG-His (human), sequence (Q15116 21-170 limits assumed): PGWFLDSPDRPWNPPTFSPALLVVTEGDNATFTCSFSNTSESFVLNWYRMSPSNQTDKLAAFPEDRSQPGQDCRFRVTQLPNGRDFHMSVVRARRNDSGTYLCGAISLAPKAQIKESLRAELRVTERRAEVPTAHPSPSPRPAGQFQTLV
Assay [7] addresses cynoPD1(1-167)-Flag-His (UniProt Q15116). Description: Octet.
Assay [8] deals with human PD-1 on cells (human) (UniProt Q15116). Put plainly: cell-based or functional assay.
human PD-1 on cells (human), sequence (Q15116 25-288 limits assumed): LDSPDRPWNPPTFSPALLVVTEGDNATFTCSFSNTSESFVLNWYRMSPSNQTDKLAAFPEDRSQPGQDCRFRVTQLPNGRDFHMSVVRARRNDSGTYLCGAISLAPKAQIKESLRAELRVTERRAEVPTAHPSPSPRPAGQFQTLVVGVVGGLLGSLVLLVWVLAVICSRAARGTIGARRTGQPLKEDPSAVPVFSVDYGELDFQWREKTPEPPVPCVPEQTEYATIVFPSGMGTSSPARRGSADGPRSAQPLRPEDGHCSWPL
The target in assay [9] is human IL-21R, recombinant soluble (FLAG-His or Fc, not stated which) (human) (UniProt Q9HBE5). Description: not stated in the table (Octet per Example 11).
human IL-21R, recombinant soluble (FLAG-His or Fc, not stated which) (human), sequence (Q9HBE5 20-232 limits assumed): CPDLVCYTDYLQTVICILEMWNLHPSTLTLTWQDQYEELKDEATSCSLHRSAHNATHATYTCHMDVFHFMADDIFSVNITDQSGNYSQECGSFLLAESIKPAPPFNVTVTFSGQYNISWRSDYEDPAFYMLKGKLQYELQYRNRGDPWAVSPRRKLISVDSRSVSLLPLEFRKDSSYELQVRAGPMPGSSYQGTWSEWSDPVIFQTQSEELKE
Assay [10] deals with human PD-1(1-170)-FLAG-His (human) (UniProt Q15116). Put plainly: not stated in the table (Octet per Example 11).

human IL-21R-FLAG-His (monovalent) (human), sequence (Q9HBE5 20-232 limits assumed): as above
IL-21R-Fc, sequence (Q9HBE5 20-232 limits assumed): as above
IL-21R on Hut78 T cells, sequence (Q9HBE5 20-538 limits assumed): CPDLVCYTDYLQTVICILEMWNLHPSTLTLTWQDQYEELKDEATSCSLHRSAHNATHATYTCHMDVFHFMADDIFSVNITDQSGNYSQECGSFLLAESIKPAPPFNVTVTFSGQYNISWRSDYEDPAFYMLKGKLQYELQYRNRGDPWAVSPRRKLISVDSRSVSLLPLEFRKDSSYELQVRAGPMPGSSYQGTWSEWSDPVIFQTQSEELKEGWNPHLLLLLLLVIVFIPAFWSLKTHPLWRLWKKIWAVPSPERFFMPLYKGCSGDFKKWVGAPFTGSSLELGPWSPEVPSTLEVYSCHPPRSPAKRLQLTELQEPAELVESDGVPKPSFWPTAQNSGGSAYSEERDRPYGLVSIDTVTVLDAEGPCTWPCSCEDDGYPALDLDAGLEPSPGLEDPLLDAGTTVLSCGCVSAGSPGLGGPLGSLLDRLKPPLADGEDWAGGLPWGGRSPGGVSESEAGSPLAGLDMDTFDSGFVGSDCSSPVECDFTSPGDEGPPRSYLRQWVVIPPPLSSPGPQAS
cynomolgus monkey PD-1(1-167)-FLAG-His (cynomolgus monkey), sequence (Q15116 other isoform, or with tags, fused parts or gaps): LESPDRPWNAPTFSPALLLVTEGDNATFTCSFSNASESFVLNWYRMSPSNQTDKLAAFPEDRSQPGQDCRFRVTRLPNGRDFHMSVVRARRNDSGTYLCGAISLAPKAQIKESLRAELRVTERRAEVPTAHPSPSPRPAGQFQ
cynoPD1(1-167)-Flag-His, sequence (Q15116 other isoform, or with tags, fused parts or gaps): as above

As for “PD-1 mAb x IL-21 D15N (Mutant C10) (from UniProt Q9HBE4 30-162)”, the Kd (in general, a measure of binding affinity in units of concentration) in assay [1] amounted to 11 nM.
Take “PD-1 mAb x IL-21 K73A (Mutant 63) (from UniProt Q9HBE4 30-162)”: the Kd in [1] turned out to be 0.0525 nM.
In [1], “PD-1 mAb x IL-21 Q116E (Mutant C21) (from UniProt Q9HBE4 30-162)” yielded a Kd of 7.95 nM.
In [2], “anti-TIGIT mAb fused to an IL-21 (R5Q:R76E) mutein (dimer)” registered a pSTAT3 EC50, Hut78/TIGIT of 1390 pM.
Turning to “PD-1 mAb x IL-21 Q12T (Mutant 41) (from UniProt Q9HBE4 30-162)”, the Kd in assay [1] is < 0.26 nM.
On the same count and under the same terms, the same measure for “PD-1 mAb x IL-21 R9G (Mutant 24) (from UniProt Q9HBE4 30-162)”: 40 nM.
Still for that read-out and setting: the same measure for “PD-1 mAb x IL-21 Q12E (Mutant 38) (from UniProt Q9HBE4 30-162)”: 0.031 nM; for “PD-1 mAb x IL-21 D15M (Mutant c9) (from UniProt Q9HBE4 30-162)”: 0.163 nM; for “PD-1 mAb x IL-21 I14S (Mutant c5) (from UniProt Q9HBE4 30-162)”: 0.166 nM.
For “anti-PD-1 mAb x IL-21 R5Q:R76E homodimer fusion”, the Kd in [3] and in [4] was > 300 nM in each case.
Consider “PD-1 mAb x IL-21 R76D (Mutant 78) (from UniProt Q9HBE4 30-162)”, for which the Kd in assay [1] was found to be 12 nM.
As to “PD-1 mAb x IL-21 R76Y (Mutant 92) (from UniProt Q9HBE4 30-162)”, in assay [1], the Kd was found to be 0.265 nM.
Still for that read-out and setting: the same measure for “PD-1 mAb x IL-21 K72P (Mutant 62) (from UniProt Q9HBE4 30-162)”: 8.96 nM; for “PD-1 mAb x IL-21 Q19D (Mutant 46) (from UniProt Q9HBE4 30-162)”: 0.17 nM; for “PD-1 mAb x IL-21 Q12N (Mutant 39) (from UniProt Q9HBE4 30-162)”: 0.38 nM.
As for “PD-1 mAb x IL-21 K73I (Mutant 68) (from UniProt Q9HBE4 30-162)”, the Kd in assay [1] turned out to be 0.172 nM.
Regarding PD-1 mAb x IL-21 R76A (Mutant 77), the equilibrium dissociation constant (Kd) in [3] and in [4] was > 10 nM in each case.
For “PD-1 mAb x IL-21 R76M (Mutant 85) (from UniProt Q9HBE4 30-162)”, in assay [1], the Kd came out at 0.6 nM.
Same read-out and setting: the same measure for “PD-1 mAb x IL-21 I66G (Mutant 52) (from UniProt Q9HBE4 30-162)”: 4.55 nM; for “PD-1 mAb x IL-21 K72D (Mutant 60) (from UniProt Q9HBE4 30-162)”: 0.235 nM.
Still for that read-out and setting: as for “PD-1 mAb x IL-21 S80G (Mutant 98) (from UniProt Q9HBE4 30-162)”, the figure is 0.265 nM.
As for “anti-PD-1 mAb x IL-21 R5E:R76A homodimer fusion”, in [2], the pSTAT3 EC50, Hut78 PD-1+ T cells (n1) is 1.98 nM; the pSTAT3 EC50, Hut78 PD-1+ T cells (n2) came out at 1.49 nM; the pSTAT3 EC50, Hut78 PD-1- T cells (n1) is > 1000 nM; the pSTAT3 EC50, Hut78 PD-1- T cells (n2) is > 1000 nM. Also, the Kd in assay [3] is > 300 nM. Besides, the Kd in assay [4] is > 300 nM. Besides, in assay [5], the Kd was found to be 5.9 nM. The substance also showed a Kd in assay [6] of 7 nM.
In the case of “PD-1 mAb x IL-21 R9A (Mutant 21) (from UniProt Q9HBE4 30-162)”, the Kd in [1] came out at 6.84 nM.
Same read-out and setting: the same measure for “PD-1 mAb x IL-21 P78D (Mutant 96) (from UniProt Q9HBE4 30-162)”: 1.23 nM; for “PD-1 mAb x IL-21 I8S (Mutant 20) (from UniProt Q9HBE4 30-162)”: 4 nM.
Still for that read-out and setting: as for “PD-1 mAb x IL-21 I16D (Mutant 44) (from UniProt Q9HBE4 30-162)”, the figure is 0.094 nM; as for “PD-1 mAb x IL-21 D15S (Mutant C12) (from UniProt Q9HBE4 30-162)”, 6.6 nM.
The substance “PD-1 mAb x IL-21 D15E (Mutant c7) (from UniProt Q9HBE4 30-162)” yielded a Kd in assay [1] of 0.249 nM.
Same read-out and setting: as for “PD-1 mAb x IL-21 V69D (Mutant 54) (from UniProt Q9HBE4 30-162)”, the figure is 0.0395 nM.
Same read-out and setting: the same measure for “PD-1 mAb x IL-21 Q12D (Mutant 37) (from UniProt Q9HBE4 30-162)”: 0.42 nM; for “PD-1 mAb x IL-21 K73S (Mutant 72) (from UniProt Q9HBE4 30-162)”: 0.167 nM; for “PD-1 mAb x IL-21 R65P (Mutant 50) (from UniProt Q9HBE4 30-162)”: 0.9 nM.
On the same count and under the same terms, the same measure for “PD-1 mAb x IL-21 K72G (Mutant 61) (from UniProt Q9HBE4 30-162)”: 0.25 nM.
Substance Nivo huIgG1 mAb showed a Kd in assay [7] of 3.5 nM.
“PD-1 mAb x IL-21 I66P (Mutant 53) (from UniProt Q9HBE4 30-162)” registered a Kd in assay [1] of 7.11 nM.
Same read-out and setting: as for “PD-1 mAb x IL-21 S113K (Mutant C18) (from UniProt Q9HBE4 30-162)”, the figure is 8.1 nM.
On the same count and under the same terms, as for “PD-1 mAb x IL-21 R5A (Mutant 100) (from UniProt Q9HBE4 30-162)”, the figure is 0.237 nM.
Substance “anti-PD-1 mAb fused to an IL-21 (R5Q:R76E) mutein (monomer)” gave a pSTAT3 EC50, Hut78/PD-1 in [2] of 341 pM.
As to “PD-1 mAb x IL-21 K73G (Mutant 66) (from UniProt Q9HBE4 30-162)”, the Kd in [1] was determined as 0.253 nM.
The same measure, in the same setting: the same measure for “PD-1 mAb x IL-21 L13D (Mutant 43) (from UniProt Q9HBE4 30-162)”: 11 nM.
Still for that read-out and setting: the same measure for “PD-1 mAb x IL-21 K73D (Mutant 64) (from UniProt Q9HBE4 30-162)”: 0.435 nM; for “PD-1 mAb x IL-21 S70G (Mutant 58) (from UniProt Q9HBE4 30-162)”: 0.518 nM; for “PD-1 mAb x IL-21 R11D (Mutant c1) (from UniProt Q9HBE4 30-162)”: 0.411 nM.
Consider “anti-PD-1 mAb x IL-21 R9E:R76A homodimer fusion”, for which the pSTAT3 EC50, Hut78 PD-1+ T cells (n1) in assay [2] amounted to 16.6 nM. For the same substance, the pSTAT3 EC50, Hut78 PD-1- T cells (n1) in assay [2] is > 1000 nM. The pSTAT3 EC50, Hut78 PD-1- T cells (n2) in [2] is > 1000 nM. Also, the Kd in assay [3] is > 300 nM; in [4], > 300 nM; in [5], 5.9 nM; in [6], 8.9 nM.
Substance “PD-1 mAb x IL-21 D15V (Mutant C14) (from UniProt Q9HBE4 30-162)” yielded a Kd in [1] of 5.47 nM.
As to “PD-1 mAb x IL-21 R76N (Mutant 86) (from UniProt Q9HBE4 30-162)”, in assay [1], the Kd was 15.3 nM.
Still for that read-out and setting: as for “PD-1 mAb x IL-21 R9D (Mutant 22) (from UniProt Q9HBE4 30-162)”, the figure is > 100 nM; as for “PD-1 mAb x IL-21 I66D (Mutant 51) (from UniProt Q9HBE4 30-162)”, 0.677 nM; as for “PD-1 mAb x IL-21 R76P (Mutant 87) (from UniProt Q9HBE4 30-162)”, 0.4 nM.
Still for that read-out and setting: the same measure for “PD-1 mAb x IL-21 R9Y (Mutant 35) (from UniProt Q9HBE4 30-162)”: 0.63 nM; for “PD-1 mAb x IL-21 K75G (Mutant 75) (from UniProt Q9HBE4 30-162)”: 0.163 nM.
As to “PD1 mAb x R9E:R76A monomer (chimera, mouse IgG1 constant region, C-terminal human IL-21 R9E:R76A)”, in assay [8], the PD-1 reporter Interpolated EC50 amounted to 1.61 nM. Besides, in [2], the Hut78 PD1 (+) Interpolated EC50 was 1.97 nM and the Hut78 PD-1 (-) Interpolated EC50 is > 1000 nM. Besides, the Kd in assay [9] is > 300 nM. In addition, in assay [10], the Kd is 2.6 nM.
Consider PD-1 mAb x IL-21 R76E (Mutant 79), for which the Kd in assay [3] and in assay [4] was > 10 nM in each case.
In turn, “PD-1 mAb x IL-21 D15A (Mutant c6) (from UniProt Q9HBE4 30-162)” showed a Kd in assay [1] of 0.439 nM.
Same read-out and setting: as for “PD-1 mAb x IL-21 K77G (Mutant 94) (from UniProt Q9HBE4 30-162)”, the figure is 0.658 nM; as for “PD-1 mAb x IL-21 S70Y (Mutant 101) (from UniProt Q9HBE4 30-162)”, 0.237 nM.
Same read-out and setting: the same measure for “PD-1 mAb x IL-21 S70P (Mutant 59) (from UniProt Q9HBE4 30-162)”: 10 nM.

The values above are taken from patent US20190270817A1.
